Source: patent US20220017605A1 (ICAHN SCHOOL OF MEDICINE AT MOUNT SINAI, published 2022)
Values joined by “and” are separate entries in the source; they are usually repeats but may differ in a detail not shown here. Equal values may be shown once.

Key:
[1] = biological target: recombinant NS1 protein of Zika virus MR766 (Rhesus/1947/Uganda) with C-terminal hexahistidine tag (Zika virus MR766, UniProt Q32ZE1 791-1142)
[2] = biological target: recombinant NS1 protein of Zika virus PRVABC59 (2015/Puerto Rico) with C-terminal hexahistidine tag (Example … (Zika virus PRVABC59, UniProt A0A024B7W1 795-1146))
Chain of recombinant NS1 protein of Zika virus PRVABC59 (2015/Puerto Rico) with C-terminal hexahistidine tag (Example … (A0A024B7W1 795-1146, tags left off): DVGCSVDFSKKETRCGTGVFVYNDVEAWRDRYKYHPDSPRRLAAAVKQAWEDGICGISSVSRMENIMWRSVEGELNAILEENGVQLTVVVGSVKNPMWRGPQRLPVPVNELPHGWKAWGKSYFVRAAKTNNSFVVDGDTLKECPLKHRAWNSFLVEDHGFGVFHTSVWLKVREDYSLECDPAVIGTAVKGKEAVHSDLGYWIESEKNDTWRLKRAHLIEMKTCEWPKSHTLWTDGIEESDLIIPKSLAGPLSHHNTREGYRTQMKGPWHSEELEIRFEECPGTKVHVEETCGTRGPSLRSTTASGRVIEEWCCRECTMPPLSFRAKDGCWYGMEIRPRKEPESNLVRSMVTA

Chain of recombinant NS1 protein of Zika virus MR766 (Rhesus/1947/Uganda) with C-terminal hexahistidine tag (Q32ZE1 791-1142, tags left off): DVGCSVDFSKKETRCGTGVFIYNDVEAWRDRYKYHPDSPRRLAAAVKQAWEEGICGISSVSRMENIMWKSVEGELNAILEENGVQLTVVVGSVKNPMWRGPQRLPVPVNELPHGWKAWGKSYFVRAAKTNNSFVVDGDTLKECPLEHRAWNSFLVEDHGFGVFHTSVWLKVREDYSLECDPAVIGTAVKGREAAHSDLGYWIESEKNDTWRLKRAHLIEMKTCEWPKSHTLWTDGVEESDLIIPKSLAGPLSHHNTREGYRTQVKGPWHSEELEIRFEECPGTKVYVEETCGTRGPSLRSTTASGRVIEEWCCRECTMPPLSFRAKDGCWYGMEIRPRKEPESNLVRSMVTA

B1: human monoclonal antibody AA12 (antibody, V domains shown)
VH: EVQLVESGGGLIQPGGSLRLSCAASGFTVSSNYMSWVRQAPGKGLEWVSVIYSGGSTYYADSVKGRFTISRDNSKNTLYLQMNSLRAEDTAVYYCARDRRGFDYWGQGTMVTVSS
VL: DIQMTQSPLSLSASVGDRVTITCRTSQSISSYLNWYQQKPGKAPKLLIYAASSLQSGVPSRFSGSGSGTDFTLTISSLQPEDFATYYCQQTYSTPLTFGGGTKVEIK
With B1 the Kd [1] was 55.4 nM and 99.8 nM and the Kd [2] was 147 nM and 76.1 nM.
